Experimental data as given in doi:10.1101/2024.10.05.616753.

Target: T1, recombinant human C-reactive protein (human), P02741
T1 chain: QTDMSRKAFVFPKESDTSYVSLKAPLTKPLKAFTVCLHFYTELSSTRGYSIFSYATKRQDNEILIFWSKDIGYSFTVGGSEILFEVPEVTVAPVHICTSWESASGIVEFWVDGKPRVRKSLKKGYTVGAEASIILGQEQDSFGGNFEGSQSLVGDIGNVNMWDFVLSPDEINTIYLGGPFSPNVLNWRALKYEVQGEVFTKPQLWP
Experiment: cryo-EM structure
Settings: remark: other sources report otherwise

B1: recombinant human C-reactive protein, P02741-1 19-224 (natural protein)
chain: T1 chain
Q: With B1 as the binder, how does the stoichiometry N read?
A: Its stoichiometry N is 5.
